Experimental data: PMC4996978, “A MUB E2 structure reveals E1 selectivity between cognate ubiquitin E2s in eukaryotes” (Nature Communications, 2016)

B1: AtMUB3-His (natural protein, Arabidopsis thaliana, UniProt Q9SW27 1-118, looked up)
chain: MPEEESIDIKFRLYDGSDIGPFRYSAASTVDFLKQRVVSDWPKGKTVVPKGINEVKLISSGKILENNKTVGQCKTPFGDIAGGVIVMHVVVQPSLAKSKTEKKVDKAPKAVICTCTIL
notes: coding region cloned without stop codon into pET28b; also called His-tagged AtMUB3; not shown: His6, C-terminal, kept
B2: AtMUB3 P76A F77A G78A D79A I80A (All A) (natural protein, Arabidopsis thaliana)
chain: MPEEESIDIKFRLYDGSDIGPFRYSAASTVDFLKQRVVSDWPKGKTVVPKGINEVKLISSGKILENNKTVGQCKTAAAAAAGGVIVMHVVVQPSLAKSKTEKKVDKAPKAVICTCTIL
notes: Generated by bridging-PCR and cloned into pET28b; also called AtMUB3 All A LBL mutant; AtMUB3 with the core LBL residues ProPheGlyAspIle all converted to alanines
B3: HsMUB (natural protein, human, UniProt O95164 1-117, looked up)
chain: MSSNVPADMINLRLILVSGKTKEFLFSPNDSASDIAKHVYDNWPMDWEEEQVSSPNILRLIYQGRFLHGNVTLGALKLPFGKTTVMHLVARETLPEPNSQGQRNREKTGESNCCVIL
notes: Homo sapiens membrane-anchored ubiquitin-fold protein (HsMUB); coding region cloned without stop codon into pET28b; also called human homologue of MUB; source: E. coli Rosetta 2 (DE3) pLacI, purified

Key:
[1] = target: T1, GST-AtUBC8 (Arabidopsis thaliana, UniProt P35131 1-148); experiment: pull-down; GST-AtUBC8 immobilized on GSH resin; equimolar His-tagged AtMUB3, AtMUB3 mutants and Ub incubated separately for 15 min; washed three times with sonication buffer (50 mM Tris-HCl pH 7.5, 300 mM NaCl, 10% glycerol, 10 mM imidazole); immunoblot; conditions: both partners purified
T1 construct: Arabidopsis thaliana ubiquitin-conjugating enzyme E2 8 (AtUBC8); also called GST-tagged AtUBC8; source: E. coli Rosetta 2 (DE3) pLacI, soluble extract fraction immobilized on GSH resin and washed

[2] = target: T2, biotinylated E2 (Ube2D3) (human, UniProt P61077 1-147, biotin); experiment: inhibition of E2 activation (HTRF-FRET E2∼Ub formation assay); 1 nM E1 (HsUBE1), 10 μM Mg-ATP, 50 nM Ub-fluorescein, 0.9 nM streptavidin-terbium, 5 nM biotinylated Ube2D3; 50 mM Tris-HCl pH 7.5, 5 mM MgCl2, 0.05% CHAPS; HsMUB pre-incubated with E2 for 15 min; initial velocity against HsMUB concentration fit to a one-site binding model; IC50 equivalent to Ki; conditions: both partners purified
T2 construct: human ubiquitin-conjugating enzyme E2 D3 (Ube2D3), biotinylated, labelled with streptavidin-terbium in the assay; source: reagents adapted from the E1/E2 Lite kit (LifeSensors, Malvern, PA)
T2 sequence (P61077 whole entry): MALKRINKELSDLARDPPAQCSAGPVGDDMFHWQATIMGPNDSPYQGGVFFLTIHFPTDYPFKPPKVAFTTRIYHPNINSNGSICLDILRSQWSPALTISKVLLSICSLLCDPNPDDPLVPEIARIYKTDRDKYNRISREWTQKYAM

T1 sequence (P35131 whole entry): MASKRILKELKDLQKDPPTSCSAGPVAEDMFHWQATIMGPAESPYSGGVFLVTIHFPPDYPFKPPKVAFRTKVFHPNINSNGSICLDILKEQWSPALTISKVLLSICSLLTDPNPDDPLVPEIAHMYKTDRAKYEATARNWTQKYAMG

Row | Binder | binding result [1] | Ki [2]
1 | B1 | binds | 
2 | B2 | binds | 
3 | B3 |  | 220 ± 16 nM
